# Test results published in publication PMC7228847 (Cell host & microbe, 2020).
# B1: Recombinant human Fc-tagged SEMA6B extracellular domain (Fc fusion)
# chain: LFPEEPPPLSVAPRDYLNHYPVFVGSGPGRLTPAEGADDLNIQRVLRVNRTLFIGDRDNLYRVELEPPTSTELRYQRKLTWRSNPSDINVCRMKGKQEGECRNFVKVLLLRDESTLFVCGSNAFNPVCANYSIDTLQPVGDNISGMARCPYDPKHANVALFSDGMLFTATVTDFLAIDAVIYRSLGDRPTLRTVKHDSKWFKEPYFVHAVEWGSHVYFFFREIAMEFNYLEKVVVSRVARVCKNDVGGSPRVLEKQWTSFLKARLNCSVPGDSHFYFNVLQAVTGVVSLGGRPVVLAVFSTPSNSIPGSAVCAFDLTQVAAVFEGRFREQKSPESIWTPVPEDQVPRPRPGCCAAPGMQYNASSALPDDILNFVKTHPLMDEAVPSLGHAPWILRTLMRHQLTRVAVDVGAGPWGNQTVVFLGSEAGTVLKFLVRPNASTSGTSGLSVFLEEFETYRPDRCGRPGGGETGQRLLSLELDAASGGLLAAFPRCVVRVPVARCQQYSGCMKNCIGSQDPYCGWAPDGSCIFLSPGTRAAFEQDVSGASTSGLGDCTGLLRASLSEDRAGLVSVNLLVTSS
# B2: Recombinant human Fc-tagged SEMA6A extracellular domain (Fc fusion)
# chain: GFPEDSEPISISHGNYTKQYPVFVGHKPGRNTTQRHRLDIQMIMIMNGTLYIAARDHIYTVDIDTSHTEEIYCSKKLTWKSRQADVDTCRMKGKHKDECHNFIKVLLKKNDDALFVCGTNAFNPSCRNYKMDTLEPFGDEFSGMARCPYDAKHANVALFADGKLYSATVTDFLAIDAVIYRSLGESPTLRTVKHDSKWLKEPYFVQAVDYGDYIYFFFREIAVEYNTMGKVVFPRVAQVCKNDMGGSQRVLEKQWTSFLKARLNCSVPGDSHFYFNILQAVTDVIRINGRDVVLATFSTPYNSIPGSAVCAYDMLDIASVFTGRFKEQKSPDSTWTPVPDERVPKPRPGCCAGSSSLERYATSNEFPDDTLNFIKTHPLMDEAVPSIFNRPWFLRTMVRYRLTKIAVDTAAGPYQNHTVVFLGSEKGIILKFLARIGNSGFLNDSLFLEEMSVYNSEKCSYDGVEDKRIMGMQLDRASSSLYVAFSTCVIKVPLGRCERHGKCKKTCIASRDPYCGWIKEGGACSHLSPNSRLTFEQDIERGNTDGLGDCHNSFVALNGHSSSLLPSTTTSDSTAQEGYESRGGMLDWKHLLDSPDSTDPLGAVSSHNHQDKKGVIRESYLKGHDQLVPVT
# Assays:
# Test in all cases: BLI
# [1] = target: B2
# [2] = target: B1
# [3] = target: TcsL (Paeniclostridium sordellii lethal toxin), recombinant His-tagged, full length (Paeniclostridium sordellii strain 6018, UniProt Q46342)
Binder,binding result [1],binding result [2],Kd [3]
TcsL_(1285-1804) (domain or fragment) TNVRINLDGNTRSFIVPVITTEQIRKNLSYSFYGSGGSYSLSLSPYNMNIDLNLVENDTWVIDVDNVVKNITIESDEIQKGELIENILSKLNIEDNKIILNNHTINFYGDINESNRFISLTFSILEDINIIIEIDLVSKSYKILLSGNCMKLIENSSDIQQKIDHIGFNGEHQKYIPYSYIDNETKYNGFIDYSKKEGLFTAEFSNESIIRNIYMPDSNNLFIYSSKDLKDIRIINKGDVKLLIGNYFKDDMKVSLSFTIEDTNTIKLNGVYLDENGVAQILKFMNNAKSALNTSNSLMNFLESINIKNIFYNNLDPNIEFILDTNFIISGSNSIGQFELICDKDKNIQPYFINFKIKETSYTLYVGNRQNLIVEPSYHLDDSGNISSTVINFSQKYLYGIDRYVNKVIIAPNLYTDEINITPVYKPNYICPEVIILDANYINEKINVNINDLSIRYVWDNDGSDLILIANSEEDNQPQVKIRFVNVFKSDTAADKLSFNFSDKQDVSVSKIISTFSLAA,binds,binds,–
B1,–,–,~60 nM
B2,–,–,~40 nM
